Reference: publication PMC11467737, “Osteocalcin binds to a GPRC6A Venus fly trap allosteric site to positively modulate GPRC6A signaling” (FASEB BioAdvances, 2024)
Bridge positions count the residues as written; N and C are the ends. Ends that are not written are not given here.

Tests used:
[1] = system: wild‐type (Gprc6a +/+) and global knock out (Gprc6a −/−) mice; experiment: Blood glucose after intraperitoneal injection in mice; format: in vivo, mouse; conditions: 2 nmol/g intraperitoneal, 24 h, n ≥ 5
Protocol: 8‐week‐old wild‐type (Gprc6a ^ +/+ ) and global knock out (Gprc6a ^ −/− ) mice were injected intraperitoneally with Ocn 20–29 (2 nmol/g body weight), or vehicle (saline; 10 μL/g body weight). Serum was collected at 24 h after intraperitoneal injection. Blood glucose levels were measured by using blood glucose strips and the Accu‐Check glucometer as described.[7], [31] A mouse IL‐6 ELISA Kit was purchased from Invitrogen (Waltham, MA, USA). Rat/Mouse FGF‐21ELISA Kit was obtained from Millipore Sigma (Burlington, MA, USA).
The Gprc6a ^ −/− mouse model was created by replacing exon 2 of the GPRC6A gene with the hygromycin resistance gene, as described previously.[32] Mice were maintained and used in accordance with recommendations as described (National Research Council 1985; Guide for the Care and Use of Laboratory Animals Department of Health and Human Services Publication NIH 86–23, Institute on Laboratory Animal Resources, Rockville, MD) and following guidelines established by the University of Tennessee Health Science Center Institutional Animal Care and Use Committee. The animal study protocol was approved by the institutional review boards at University of Tennessee Health Science Center Institutional Animal Care and Use Committee.

human GPRC6A isoform 2 [2] = target: T1, human GPRC6A isoform 2 (Homo sapiens, UniProt Q5T6X5); experiment: cAMP accumulation in HEK-293 cells transfected with human GPRC6A isoform 2; format: cell-based; conditions: isoform 2; Ocn 1.73-26.0 nM; 1 mM calcium; 40 min; Figure 2C
T1 construct: expressed in transfected cells; host or cells: HEK-293
T1 sequence (Q5T6X5 19-751 isoform Q5T6X5-2 limits assumed): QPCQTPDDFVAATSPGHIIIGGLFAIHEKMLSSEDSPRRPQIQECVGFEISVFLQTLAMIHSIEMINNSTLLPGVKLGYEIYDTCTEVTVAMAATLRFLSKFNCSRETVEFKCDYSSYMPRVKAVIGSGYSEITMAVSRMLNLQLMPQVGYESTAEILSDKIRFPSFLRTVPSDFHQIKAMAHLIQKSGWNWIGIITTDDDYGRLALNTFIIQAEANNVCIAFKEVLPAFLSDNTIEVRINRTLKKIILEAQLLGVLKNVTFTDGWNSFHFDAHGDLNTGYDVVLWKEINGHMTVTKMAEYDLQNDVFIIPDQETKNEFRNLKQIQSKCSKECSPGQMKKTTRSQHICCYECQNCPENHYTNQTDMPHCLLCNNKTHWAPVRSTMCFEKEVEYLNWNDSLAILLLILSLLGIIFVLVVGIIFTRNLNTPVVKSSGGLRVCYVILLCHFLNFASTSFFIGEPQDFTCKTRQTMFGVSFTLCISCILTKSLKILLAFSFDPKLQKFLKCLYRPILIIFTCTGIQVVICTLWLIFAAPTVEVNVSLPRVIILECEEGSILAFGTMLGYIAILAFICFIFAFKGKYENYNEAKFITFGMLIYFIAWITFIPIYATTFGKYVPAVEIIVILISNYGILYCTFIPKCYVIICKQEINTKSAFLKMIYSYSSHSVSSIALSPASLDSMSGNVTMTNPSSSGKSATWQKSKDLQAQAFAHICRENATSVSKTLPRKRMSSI
Protocol: (§1) HEK‐293 transfected with human GPRC6A isoform cDNA plasmids cells (10^5 cells/well)[30] were cultured in 24‐well plates in DMEM supplemented with 10% fetal bovine serum and 1% penicillin/streptomycin (100 U/mL of penicillin and 100 μg/mL of streptomycin) for 48 h followed by 4 h incubation in DMEM/F12 containing 0.1% BSA and 0.5 mM IBMX to achieve quiescence and preventing cAMP degradation. Quiescent cells were treated with vehicle control, various ligands at concentration as indicated for 40 min at 37°C. Then, the reaction was stopped, and the cells lysed with 0.5 mL 0.1 N HCl. cAMP levels were measured by using Cyclic AMP EIA kit (Cayman Chemical; Ann Arbor, MA, USA) following the manufacture's protocol.

human GPRC6A isoform 3 [3] = target: T2, human GPRC6A isoform 3 (Homo sapiens, UniProt Q5T6X5); experiment: ERK activation (ELISA) in HEK-293 cells transfected with human GPRC6A isoform 3; format: cell-based; conditions: Ocn 1.73-26.0 nM, 1 mM calcium, 15 min, Figure 2B
T2 construct: expressed in transfected cells; host or cells: HEK-293
T2 sequence (Q5T6X5 19-855 isoform Q5T6X5-3 limits assumed): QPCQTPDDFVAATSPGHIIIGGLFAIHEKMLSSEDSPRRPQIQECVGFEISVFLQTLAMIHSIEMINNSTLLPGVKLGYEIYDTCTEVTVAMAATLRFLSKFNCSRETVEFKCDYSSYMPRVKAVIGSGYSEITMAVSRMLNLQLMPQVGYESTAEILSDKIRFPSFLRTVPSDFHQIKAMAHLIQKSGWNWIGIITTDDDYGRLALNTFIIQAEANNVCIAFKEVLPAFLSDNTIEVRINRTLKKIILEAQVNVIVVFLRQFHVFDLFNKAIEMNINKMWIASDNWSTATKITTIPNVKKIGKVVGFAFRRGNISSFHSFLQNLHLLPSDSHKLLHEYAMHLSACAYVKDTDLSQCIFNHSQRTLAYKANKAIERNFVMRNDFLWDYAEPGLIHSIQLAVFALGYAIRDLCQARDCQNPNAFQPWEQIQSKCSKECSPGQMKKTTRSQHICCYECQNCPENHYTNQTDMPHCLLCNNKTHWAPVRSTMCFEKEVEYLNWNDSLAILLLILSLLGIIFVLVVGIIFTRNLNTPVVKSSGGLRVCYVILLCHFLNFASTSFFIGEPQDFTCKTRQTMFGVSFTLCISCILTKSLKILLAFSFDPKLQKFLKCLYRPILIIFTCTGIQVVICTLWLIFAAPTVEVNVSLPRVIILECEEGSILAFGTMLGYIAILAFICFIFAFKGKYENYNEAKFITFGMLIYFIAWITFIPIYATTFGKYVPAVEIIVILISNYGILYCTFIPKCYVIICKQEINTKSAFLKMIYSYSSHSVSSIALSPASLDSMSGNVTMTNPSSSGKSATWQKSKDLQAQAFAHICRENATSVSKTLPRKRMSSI
Protocol: (§2) All culture reagents were from Invitrogen (Waltham, MA, USA). Human embryonic kidney HEK‐293 cells were obtained from American Type Culture Collection and cultured in DMEM medium supplemented with 10% fetal bovine serum and 1% Penicillin/Streptomycin (P/S). Briefly, HEK‐293 cells transfected with/without human GPRC6A isoforms cDNA plasmids were starved by overnight incubation in serum‐free DMEM/F12 containing 0.1% bovine serum albumin (BSA) and stimulated with various ligands at different doses. […]

human GPRC6A isoform 3 [4] = target: T2, human GPRC6A isoform 3; experiment: cAMP accumulation in HEK-293 cells transfected with human GPRC6A isoform 3; format: cell-based; conditions: isoform 3; Ocn 1.73-26.0 nM; 1 mM calcium; 40 min; Figure 2C
Protocol: as §1

human GPRC6A isoform 2 [5] = target: T1, human GPRC6A isoform 2; experiment: ERK activation (ELISA) in HEK-293 cells transfected with human GPRC6A isoform 2; format: cell-based; conditions: Ocn 1.73-26.0 nM, 1 mM calcium, 15 min, Figure 2B
Protocol: as §2

Row | Ocn-induced cAMP accumulation, dose response (human GPRC6A isoform 2 [2]) | Ocn-induced cAMP accumulation, dose response (human GPRC6A isoform 3 [4]) | Ocn-induced ERK activation, dose response (human GPRC6A isoform 2 [5]) | Substance | Blood glucose response ([1]; Gprc6a −/− mice) | Reduction of blood glucose levels ([1]; wild-type Gprc6a +/+ mice, 8 weeks old, single injection, vehicle saline had no effect) | Ocn-induced ERK activation, dose response (human GPRC6A isoform 3 [3])
1 |  |  |  | REVCELNPDC (disulfide 4-10 (inferred)) [Ocn 20–29, synthesized human Ocn decapeptide fragment located in the middle of the protein] | lost | ~ 10% | 
2 | complete loss of cAMP activation | maintained the cAMP response | attenuated ERK response | osteocalcin (YLYQWLGAPVPYPDPLEPRREVCELNPDCDELADHIGFQEAYRRFYGPV; not fully specified; ends and bridges not checked; UniProt P02818 52-100, looked up) [Ocn 1–49, full human Ocn (49 aa) synthesized by BioMatik; methods also describe decarboxylated Ocn purified from bovine tibial bone, reference compound] |  |  | attenuation of Ocn‐induced ERK stimulation
